Experimental data taken from article PMC10397247.
Each block holds one binder with its values, some of them ahead of it.

Key:
[1] = biological target: T1, 4H32-AA; test: two-hybrid library CCmax; settings: mean of both orientations;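 also: natural log of median RNA to DNA barcode read ratio; higher means stronger binding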
T1 chain: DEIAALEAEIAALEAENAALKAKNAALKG

[2] = biological target: T2, 4H3697-AA; test: two-hybrid library CCmax; settings: mean of both orientations;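 also: natural log of median RNA to DNA barcode read ratio; higher means stronger binding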
T2 chain: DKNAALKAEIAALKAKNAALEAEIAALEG

[3] = biological target: T3, 4H982-AA; test: two-hybrid library CCmax; settings: mean of both orientations;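 also: natural log of median RNA to DNA barcode read ratio; higher means stronger binding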
T3 chain: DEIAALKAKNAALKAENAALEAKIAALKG

[4] = biological target: T4, 4H3865-AA; test: two-hybrid library CCmax; settings: mean of both orientations;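 also: natural log of median RNA to DNA barcode read ratio; higher means stronger binding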
T4 chain: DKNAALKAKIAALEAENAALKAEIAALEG

[5] = biological target: T5, 4H340-AA; test: two-hybrid library CCmax; settings: mean of both orientations;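 also: natural log of median RNA to DNA barcode read ratio; higher means stronger binding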
T5 chain: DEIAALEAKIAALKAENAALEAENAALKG

[6] = biological target: T6, 4H3588-AA; test: two-hybrid library CCmax; settings: mean of both orientations;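 also: natural log of median RNA to DNA barcode read ratio; higher means stronger binding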
T6 chain: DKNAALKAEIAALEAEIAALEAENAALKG

[7] = biological target: T7, 4H3133-AA; test: two-hybrid library CCmax; settings: mean of both orientations
T7 chain: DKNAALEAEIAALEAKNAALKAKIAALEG

[8] = biological target: T8, 4H3378-AA; test: two-hybrid library CCmax; settings: mean of both orientations
T8 chain: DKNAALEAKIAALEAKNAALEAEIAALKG

[9] = biological target: T9, 4H2907-AA; test: two-hybrid library CCmax; settings: mean of both orientations
T9 chain: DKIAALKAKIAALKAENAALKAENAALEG

[10] = biological target: T10, 4H3162-AA; test: two-hybrid library CCmax; settings: mean of both orientations
T10 chain: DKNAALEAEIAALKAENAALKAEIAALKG

[11] = biological target: T11, 4H3631-AA; test: two-hybrid library CCmax; settings: mean of both orientations
T11 chain: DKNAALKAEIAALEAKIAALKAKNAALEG

[12] = biological target: T12, 4H2648-AA; test: two-hybrid library CCmax
T12 chain: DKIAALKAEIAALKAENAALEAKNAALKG

[13] = biological target: T13, 4H3718-AA; test: two-hybrid library CCmax; settings: mean of both orientations
T13 chain: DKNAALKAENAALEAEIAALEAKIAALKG

[14] = biological target: T14, 4H697-AA; test: two-hybrid library CCmax; settings: mean of both orientations
T14 chain: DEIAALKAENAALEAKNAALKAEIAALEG

[15] = biological target: T15, 4H3056-AA; test: two-hybrid library CCmax; settings: mean of both orientations
T15 chain: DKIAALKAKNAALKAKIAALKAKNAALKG

[16] = biological target: T16, 4H3606-AA; test: two-hybrid library CCmax; settings: mean of both orientations
T16 chain: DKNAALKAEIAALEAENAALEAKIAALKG

[17] = biological target: T17, 4H3413-AA; test: two-hybrid library CCmax; settings: mean of both orientations
T17 chain: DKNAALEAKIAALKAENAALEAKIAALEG

[18] = biological target: T18, 4H384-AA; test: two-hybrid library CCmax; settings: mean of both orientations
T18 chain: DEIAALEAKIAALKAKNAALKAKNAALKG

[19] = biological target: T19, O9-bN; test: two-hybrid library CCNG1; settings: mean of both orientations
T19 chain: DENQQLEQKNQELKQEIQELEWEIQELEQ

[20] = biological target: T20, 4H568-bH; test: two-hybrid library CCNG1
T20 chain: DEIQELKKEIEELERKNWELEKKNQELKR

[21] = biological target: T21, 4H883-bH; test: two-hybrid library CCNG1
T21 chain: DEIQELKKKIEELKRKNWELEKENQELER

[22] = biological target: T22, 4H607-bH; test: two-hybrid library CCNG1
T22 chain: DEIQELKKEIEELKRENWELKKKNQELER

[23] = biological target: T23, 4H462-bH; test: two-hybrid library CCNG1
T23 chain: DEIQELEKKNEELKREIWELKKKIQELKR

[24] = biological target: T24, 4H953-bH; test: two-hybrid library CCNG1
T24 chain: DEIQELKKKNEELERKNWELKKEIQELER

[25] = biological target: T25, 4H906-bN; test: two-hybrid library CCNG1
T25 chain: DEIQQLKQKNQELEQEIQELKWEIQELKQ

[26] = biological target: T26, 4H797-bH; test: two-hybrid library CCNG1
T26 chain: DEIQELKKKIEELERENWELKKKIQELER

[27] = biological target: T27, 4H687-bH; test: two-hybrid library CCNG1
T27 chain: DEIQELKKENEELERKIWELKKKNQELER

[28] = biological target: T28, 4H918-bH; test: two-hybrid library CCNG1
T28 chain: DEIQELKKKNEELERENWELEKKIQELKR

[29] = biological target: T29, 4H967-bH; test: two-hybrid library CCNG1
T29 chain: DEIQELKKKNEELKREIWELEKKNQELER

[30] = biological target: T30, 4H72-bH; test: two-hybrid library CCNG1
T30 chain: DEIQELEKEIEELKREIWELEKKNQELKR

interaction score [1]: 1.9
interaction score [2]: -1.06
interaction score [3]: -0.309
interaction score [4]: -1.49
interaction score [5]: 1.21
interaction score [6]: 0.769
interaction score [7]: -0.651
interaction score [8]: -1.8
interaction score [9]: 1.45
interaction score [10]: -1.38
interaction score [11]: -0.735
interaction score [12]: 0.455
interaction score [13]: -1.35
interaction score [14]: -1.14
interaction score [15]: -1.84
interaction score [16]: -1.35
interaction score [17]: -1.8
interaction score [18]: 1.28
B1: 4H2648-AA (peptide)
chain: DKIAALKAEIAALKAENAALEAKNAALKG

interaction score [19]: -1.9
B2: O9-bN (peptide)
chain: DENQQLEQKNQELKQEIQELEWEIQELEQ

interaction score [20]: 0.229
interaction score [21]: -0.231
interaction score [22]: -0.483
interaction score [23]: 0.452
interaction score [24]: -0.0754
interaction score [25]: -2.48
interaction score [26]: -0.33
interaction score [27]: 1.31
interaction score [28]: 0.264
interaction score [29]: -0.847
interaction score [30]: 0.335
B3: 4H462-bH (peptide)
chain: DEIQELEKKNEELKREIWELKKKIQELKR
